Changes are numbered by the printed parent chain.
Key:
[1] = biological target: SNAP-GAL2R Q82^2.61A (human) (UniProt O43603); test: AlphaScreen or HTRF; saturation binding: HEK293 cells transfected with SNAP-GAL1R or SNAP-GAL2R (WT or mutants), labelled with SNAP-Lumi4-Tb; increasing concentrations of galanin-A2 with or without 100 uM unlabeled galanin, 1 h at room temperature
[2] = biological target: SNAP-GAL2R Y271^7.32A (human) (UniProt O43603); test: as above
[3] = biological target: SNAP-GAL2R F264^ECL3A (human) (UniProt O43603); test: as above
Chain of SNAP-GAL2R F264^ECL3A (human) (O43603 whole entry F264A): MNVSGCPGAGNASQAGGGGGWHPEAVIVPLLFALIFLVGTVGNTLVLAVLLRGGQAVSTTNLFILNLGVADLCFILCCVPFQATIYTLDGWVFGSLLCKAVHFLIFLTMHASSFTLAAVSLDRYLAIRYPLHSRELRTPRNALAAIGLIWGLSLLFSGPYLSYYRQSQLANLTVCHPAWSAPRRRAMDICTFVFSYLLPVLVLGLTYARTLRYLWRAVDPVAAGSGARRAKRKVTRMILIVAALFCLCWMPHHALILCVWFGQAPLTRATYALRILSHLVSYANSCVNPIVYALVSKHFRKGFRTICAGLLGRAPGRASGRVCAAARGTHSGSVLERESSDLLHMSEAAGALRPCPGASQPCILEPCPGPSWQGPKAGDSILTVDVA

SNAP-GAL2R H252^6.51A = biological target: T1, SNAP-GAL2R H252^6.51A (human, UniProt O43603 1-387, H252^6.51A, Lumi4-Tb on the SNAP tag); test: AlphaScreen or HTRF; saturation binding: HEK293 cells transfected with SNAP-tagged receptor (WT or mutant) and labelled with SNAP-Lumi4-Tb, incubated with increasing concentrations of galanin-A2 in the presence or absence of 100 uM unlabeled galanin, 1 h at room temperature; HTRF ratio 665 nm/620 nm; settings: one partner purified
T1 construct: also called H252A; source: HEK293, transfected, on cells; not shown: SNAP tag, N-terminal, kept
T1 sequence (looked up): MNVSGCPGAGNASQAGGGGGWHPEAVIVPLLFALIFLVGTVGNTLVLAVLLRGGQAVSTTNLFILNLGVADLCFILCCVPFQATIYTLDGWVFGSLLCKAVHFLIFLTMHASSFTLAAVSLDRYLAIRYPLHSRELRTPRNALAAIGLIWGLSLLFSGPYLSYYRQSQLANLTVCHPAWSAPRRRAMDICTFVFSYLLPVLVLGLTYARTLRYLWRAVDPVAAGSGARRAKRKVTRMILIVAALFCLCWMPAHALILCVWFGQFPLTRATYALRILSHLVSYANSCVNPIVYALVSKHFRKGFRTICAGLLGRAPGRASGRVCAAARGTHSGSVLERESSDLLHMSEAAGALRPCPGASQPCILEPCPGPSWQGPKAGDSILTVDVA

[4] = biological target: T2, N-terminal-SNAP-tagged GAL2R, wild type (human, UniProt O43603 1-387, Lumi4-Tb on the SNAP tag); test: as above; settings: one partner purified
T2 construct: also called SNAP-GAL2R; GAL2R WT; source: HEK293, transfected, on cells; not shown: SNAP tag, N-terminal, kept
T2 sequence (looked up): T1 sequence (looked up) with A252H

SNAP-GAL2R I256^6.55A = biological target: T3, SNAP-GAL2R I256^6.55A (human, UniProt O43603 1-387, I256^6.55A, Lumi4-Tb on the SNAP tag); test: as above; settings: one partner purified
T3 construct: also called I256A; source: HEK293, transfected, on cells; not shown: SNAP tag, N-terminal, kept
T3 sequence (looked up): T1 sequence (looked up) with A252H, I256A

SNAP-GAL2R W249^6.48A = biological target: T4, SNAP-GAL2R W249^6.48A (human, UniProt O43603 1-387, W249^6.48A, Lumi4-Tb on the SNAP tag); test: as above; settings: one partner purified
T4 construct: also called W249A; source: HEK293, transfected, on cells; not shown: SNAP tag, N-terminal, kept
T4 sequence (looked up): T1 sequence (looked up) with W249A, A252H

Chain of SNAP-GAL2R Q82^2.61A (human) (O43603 whole entry Q82A): as the sequence (O43603 whole entry F264A) above, with Q82A, A264F counted along it
Chain of SNAP-GAL2R Y271^7.32A (human) (O43603 whole entry Y271A): as the sequence (O43603 whole entry F264A) above, with A264F, Y271A counted along it

B1: galanin-A2 (full-length galanin labeled with the dye A2 on an additional cysteine at the C-terminal end) (peptide)
peptide: GWTLNSAGYLLGPHAVGNHRSFSDKNGLTSC
modifications: dye A2 on the additional C-terminal cysteine
notes: numbers count on: the mature protein; additional cysteine at the C-terminal end of the peptide, carries the dye A2; source: synthetic peptide (synthesized by Vazyme, China)
- Kd [1]: > 500 nM
- Kd [2]: > 500 nM
- Kd [3]: > 500 nM
- Kd (SNAP-GAL2R H252^6.51A): 246 nM
- Kd [4]: 21.7 nM
- Kd (SNAP-GAL2R I256^6.55A): 221 nM
- Kd (SNAP-GAL2R W249^6.48A): 23.3 nM
